Results reported in publication PMC11557686.

Key:
Test in all cases: NanoBiT
Conditions in all cases: six technical replicates in each of three independent biological replicates; parent: est. 1.0; read off a plot
[1] = target: SmBiT-SEC24A (UniProt O95486)
[2] = target: SmBiT-SEC24C (UniProt P53992)
[3] = target: LgBiT-SURF4 (UniProt O15260)

Sequence of UniProt P53992 (P53992 whole entry): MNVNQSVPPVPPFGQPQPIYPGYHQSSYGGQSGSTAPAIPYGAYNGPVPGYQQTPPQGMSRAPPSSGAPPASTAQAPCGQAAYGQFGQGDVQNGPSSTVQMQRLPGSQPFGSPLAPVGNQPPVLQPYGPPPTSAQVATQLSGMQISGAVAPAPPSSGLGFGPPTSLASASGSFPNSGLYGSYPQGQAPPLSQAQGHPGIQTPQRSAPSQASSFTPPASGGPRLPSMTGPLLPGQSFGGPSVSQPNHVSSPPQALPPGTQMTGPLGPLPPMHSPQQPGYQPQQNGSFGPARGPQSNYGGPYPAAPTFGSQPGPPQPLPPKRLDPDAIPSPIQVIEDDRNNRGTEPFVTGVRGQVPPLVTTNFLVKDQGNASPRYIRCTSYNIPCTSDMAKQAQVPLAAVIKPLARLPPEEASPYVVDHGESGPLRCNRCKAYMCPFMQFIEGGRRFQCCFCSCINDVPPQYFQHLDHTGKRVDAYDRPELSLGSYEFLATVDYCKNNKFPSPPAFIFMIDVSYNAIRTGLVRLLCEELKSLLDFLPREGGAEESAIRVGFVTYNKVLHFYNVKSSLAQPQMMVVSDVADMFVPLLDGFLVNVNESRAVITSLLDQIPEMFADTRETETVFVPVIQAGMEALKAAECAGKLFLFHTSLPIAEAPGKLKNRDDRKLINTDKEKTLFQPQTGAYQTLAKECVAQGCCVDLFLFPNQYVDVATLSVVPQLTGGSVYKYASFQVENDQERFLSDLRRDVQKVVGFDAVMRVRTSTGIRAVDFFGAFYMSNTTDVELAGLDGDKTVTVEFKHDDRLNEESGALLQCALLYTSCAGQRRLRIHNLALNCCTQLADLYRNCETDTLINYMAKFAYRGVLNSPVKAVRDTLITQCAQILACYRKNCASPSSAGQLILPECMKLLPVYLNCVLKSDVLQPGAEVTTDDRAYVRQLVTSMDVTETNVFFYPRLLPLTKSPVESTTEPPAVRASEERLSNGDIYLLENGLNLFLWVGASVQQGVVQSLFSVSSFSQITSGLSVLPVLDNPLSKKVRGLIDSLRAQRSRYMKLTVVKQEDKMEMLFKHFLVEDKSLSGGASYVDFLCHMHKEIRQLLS

ratio to parent [1]	ratio to parent [2]	ratio to parent [3]	Substance
0.9	0.69		LgBiT-SURF4 (from UniProt O15260) DE
0.85	0.78		LgBiT-SURF4 (from UniProt O15260) EW
0.43	0.82		LgBiT-SURF4 (from UniProt O15260) Phe loop
		0.79	SmBiT-SEC24A (from UniProt O95486) D-site
